Assay results reported in PMC8654365.

Experiments:
[1] = biological target: HA-tagged RON (Recepteur d'Origine Nantais, MST1R) stably expressed in A431 cells (human); assay: two-colour single quantum dot tracking with two-state hidden Markov model; live A431^RON cells; 200 pM anti-HA-QD655 on HA-RON, then 50 pM QD605-conjugated EGF-biotin on endogenous EGFR; 34–36 °C, 20 frames per s; off-rate of hetero-interactions
[2] = biological target: HA-tagged RON (Recepteur d'Origine Nantais, MST1R) stably expressed in A431 cells (human); assay: two-colour single quantum dot tracking with two-state hidden Markov model; live A431^RON cells, no ligand; HA-RON labelled with a mixture of anti-HA-QD605 and anti-HA-QD655 (monovalent Fab); 34–36 °C, 20 frames per s; off-rate of RON/RON homo-interactions

HA-tagged RON (Recepteur d'Origine Nantais, MST1R) stably expressed in A431 cells (human), sequence (Q04912 25-304 limits assumed, chain 1 of 2): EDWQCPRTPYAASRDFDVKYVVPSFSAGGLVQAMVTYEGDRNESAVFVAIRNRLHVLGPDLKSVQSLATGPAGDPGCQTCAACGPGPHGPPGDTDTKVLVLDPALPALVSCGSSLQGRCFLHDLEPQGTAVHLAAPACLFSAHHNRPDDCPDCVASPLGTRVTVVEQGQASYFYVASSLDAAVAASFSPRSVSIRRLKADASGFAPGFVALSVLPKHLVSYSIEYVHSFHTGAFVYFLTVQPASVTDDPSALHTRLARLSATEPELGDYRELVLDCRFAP
HA-tagged RON (Recepteur d'Origine Nantais, MST1R) stably expressed in A431 cells (human), sequence (Q04912 310-1400 limits assumed, chain 2 of 2): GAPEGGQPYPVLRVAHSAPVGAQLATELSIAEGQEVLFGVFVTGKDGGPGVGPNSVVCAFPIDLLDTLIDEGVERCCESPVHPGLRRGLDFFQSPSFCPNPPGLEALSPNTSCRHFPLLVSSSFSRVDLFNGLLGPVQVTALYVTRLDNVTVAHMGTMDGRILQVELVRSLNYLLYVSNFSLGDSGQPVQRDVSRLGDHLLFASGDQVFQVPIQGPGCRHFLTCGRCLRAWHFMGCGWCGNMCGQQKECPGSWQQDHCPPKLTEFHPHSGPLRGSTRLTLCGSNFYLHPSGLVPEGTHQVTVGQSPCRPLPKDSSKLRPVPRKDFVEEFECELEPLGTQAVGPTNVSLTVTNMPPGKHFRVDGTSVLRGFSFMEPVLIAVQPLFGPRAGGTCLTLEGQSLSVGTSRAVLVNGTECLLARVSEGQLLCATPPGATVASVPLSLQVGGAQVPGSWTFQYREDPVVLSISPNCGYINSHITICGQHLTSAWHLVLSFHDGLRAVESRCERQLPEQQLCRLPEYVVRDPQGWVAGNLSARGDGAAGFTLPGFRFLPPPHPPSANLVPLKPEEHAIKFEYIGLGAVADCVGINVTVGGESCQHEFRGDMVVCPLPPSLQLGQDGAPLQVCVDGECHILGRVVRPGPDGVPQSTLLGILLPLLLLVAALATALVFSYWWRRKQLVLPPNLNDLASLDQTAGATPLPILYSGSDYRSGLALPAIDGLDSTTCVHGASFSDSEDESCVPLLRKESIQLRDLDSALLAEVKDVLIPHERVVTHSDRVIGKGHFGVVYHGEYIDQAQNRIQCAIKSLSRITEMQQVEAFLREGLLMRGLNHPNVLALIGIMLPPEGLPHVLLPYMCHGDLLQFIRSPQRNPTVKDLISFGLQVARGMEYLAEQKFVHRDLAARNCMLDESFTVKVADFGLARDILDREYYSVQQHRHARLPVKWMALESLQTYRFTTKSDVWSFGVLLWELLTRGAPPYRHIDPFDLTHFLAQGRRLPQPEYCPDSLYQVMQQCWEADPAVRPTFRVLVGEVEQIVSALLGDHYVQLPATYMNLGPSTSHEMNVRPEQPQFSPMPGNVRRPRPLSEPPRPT

Substance | average lifetime [1] [s] | koff [1] [s⁻¹] | average lifetime [2] [s] | koff [2] [s⁻¹]
EGF-bound EGFR (QD-conjugated EGF-biotin on endogenous EGFR of live A431^RON cells) (from UniProt P00533 25-1210) (complex) | 2 | 0.49 |  | 
HA-tagged RON (Recepteur d'Origine Nantais, MST1R) stably expressed in A431 cells (receptor) |  |  | 5.5 | 0.18
